Laboratory results published in PMC12589613, “ATP-dependent one-dimensional movement maintains immune homeostasis by suppressing spontaneous MDA5 filament assembly” (Cell Research, 2025).

T1: MDA5(R337G) (human, UniProt Q9BYX4 1-1025, R337G, Cy3 on a peptide (Cy3-CLPETGG) ligated by sortase; used unlabelled in some experiments)
T1 sequence (looked up): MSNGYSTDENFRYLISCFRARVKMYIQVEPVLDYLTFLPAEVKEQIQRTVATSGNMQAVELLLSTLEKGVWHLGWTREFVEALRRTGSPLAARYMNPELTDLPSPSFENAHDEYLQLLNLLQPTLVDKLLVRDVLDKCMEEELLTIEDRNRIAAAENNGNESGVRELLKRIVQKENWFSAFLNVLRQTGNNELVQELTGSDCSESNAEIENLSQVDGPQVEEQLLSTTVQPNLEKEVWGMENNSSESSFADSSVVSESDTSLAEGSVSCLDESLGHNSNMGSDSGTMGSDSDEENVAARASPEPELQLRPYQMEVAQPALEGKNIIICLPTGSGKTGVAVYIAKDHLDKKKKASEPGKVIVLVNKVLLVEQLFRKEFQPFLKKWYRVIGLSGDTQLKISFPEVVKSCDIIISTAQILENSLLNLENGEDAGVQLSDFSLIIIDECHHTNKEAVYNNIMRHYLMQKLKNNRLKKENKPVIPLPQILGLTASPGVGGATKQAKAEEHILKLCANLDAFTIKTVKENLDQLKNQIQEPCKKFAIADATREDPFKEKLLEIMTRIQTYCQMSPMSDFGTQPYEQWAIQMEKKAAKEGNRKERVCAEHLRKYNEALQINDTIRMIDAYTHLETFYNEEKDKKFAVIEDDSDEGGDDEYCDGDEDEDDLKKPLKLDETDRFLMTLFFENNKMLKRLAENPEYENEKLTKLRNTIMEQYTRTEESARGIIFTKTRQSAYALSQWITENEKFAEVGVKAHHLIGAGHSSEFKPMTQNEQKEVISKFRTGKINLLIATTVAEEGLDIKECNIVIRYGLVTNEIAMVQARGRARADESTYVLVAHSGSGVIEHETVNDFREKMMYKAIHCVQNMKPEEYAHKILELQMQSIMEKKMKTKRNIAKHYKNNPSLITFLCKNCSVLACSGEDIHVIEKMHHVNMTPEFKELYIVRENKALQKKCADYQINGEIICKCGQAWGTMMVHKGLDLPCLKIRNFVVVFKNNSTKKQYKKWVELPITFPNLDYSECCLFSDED

T2: MDA5(M854K) (human, UniProt Q9BYX4 1-1025, M854K, Cy3 on a peptide (Cy3-CLPETGG) ligated by sortase; used unlabelled in some experiments)
T2 sequence (looked up): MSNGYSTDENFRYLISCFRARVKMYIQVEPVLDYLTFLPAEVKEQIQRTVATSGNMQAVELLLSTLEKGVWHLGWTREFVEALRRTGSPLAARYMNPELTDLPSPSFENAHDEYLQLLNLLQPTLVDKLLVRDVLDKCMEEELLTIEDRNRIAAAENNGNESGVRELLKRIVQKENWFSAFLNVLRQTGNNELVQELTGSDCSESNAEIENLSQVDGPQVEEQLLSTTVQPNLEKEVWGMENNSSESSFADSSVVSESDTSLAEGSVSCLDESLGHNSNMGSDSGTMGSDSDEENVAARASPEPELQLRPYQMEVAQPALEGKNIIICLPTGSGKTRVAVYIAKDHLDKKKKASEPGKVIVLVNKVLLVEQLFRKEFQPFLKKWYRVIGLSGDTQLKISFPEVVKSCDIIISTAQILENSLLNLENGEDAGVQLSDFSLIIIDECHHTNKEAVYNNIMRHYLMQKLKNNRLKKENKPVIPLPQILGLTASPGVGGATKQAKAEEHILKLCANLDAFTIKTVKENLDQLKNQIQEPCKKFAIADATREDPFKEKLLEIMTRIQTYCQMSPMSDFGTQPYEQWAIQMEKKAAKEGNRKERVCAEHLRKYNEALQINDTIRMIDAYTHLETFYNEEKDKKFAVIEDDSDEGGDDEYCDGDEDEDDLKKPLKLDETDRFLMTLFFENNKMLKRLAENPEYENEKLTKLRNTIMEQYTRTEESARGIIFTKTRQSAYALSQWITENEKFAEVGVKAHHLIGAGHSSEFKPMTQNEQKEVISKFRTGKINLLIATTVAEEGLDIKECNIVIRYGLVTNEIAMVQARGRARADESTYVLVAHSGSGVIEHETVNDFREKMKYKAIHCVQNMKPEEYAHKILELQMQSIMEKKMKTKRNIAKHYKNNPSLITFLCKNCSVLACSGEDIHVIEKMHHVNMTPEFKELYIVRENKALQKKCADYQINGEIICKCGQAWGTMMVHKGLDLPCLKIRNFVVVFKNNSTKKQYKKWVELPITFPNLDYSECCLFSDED


How the values were obtained:
Details in all cases: both partners purified
MDA5(R337G) [1] = biological target: T1, MDA5(R337G); test: single-molecule TIRF imaging (smTIRF) on dsRNA; MAVS-CARD recruitment without LGP2: Cy3-MDA5, Cy3-MDA5(R337G) or Cy3-MDA5(M854K) (100 nM) and AF647-MAVS-CARD (100 nM) on 11.6-kb dsRNA; Imaging Buffer with 2 mM ATP, 23 °C
MDA5(M854K) [2] = biological target: T2, MDA5(M854K); test: as above
MDA5(R337G) [3] = biological target: T1, MDA5(R337G); test: single-molecule TIRF imaging (smTIRF) on dsRNA; 60 nM Cy3-LGP2 with or without 60 nM unlabelled MDA5, MDA5(R337G) or MDA5(M854K) on stretched, surface-anchored 11.6-kb dsRNA; Imaging Buffer (20 mM Tris-HCl pH 7.5, 100 mM NaCl, 1.5 mM MgCl2, 2 mM ATP unless stated otherwise), 23 °C
MDA5(M854K) [4] = biological target: T2, MDA5(M854K); test: as above

Row | Binder | binding result (MDA5(R337G) [1]) | binding result (MDA5(M854K) [2]) | binding result (MDA5(R337G) [3]) | binding result (MDA5(M854K) [4])
1 | MAVS-CARD(D23K/E26K/E80K) (domain or fragment, UniProt Q7Z434 1-97, looked up, Alexa Fluor 647 (SNAP-Surface Alexa Fluor 647 substrate) on the SNAP-tag, pET47b plasmid from the Sun Hur lab; also called AF647-MAVS-CARD; not shown: SNAP-tag, C-terminal, kept) MPFAEDKTYKYICRNFSNFCNVKVVKILPYLPCLTARDQDRLRATCTLSGNRDTLWHLFNTLQRRPGWVEYFIAALRGCKLVDLADEVASVYQSYQP | binds | binds | – | –
2 | human LGP2 (natural protein, UniProt Q96C10 1-678, looked up, Cy3 or Cy5 on a peptide (GGGC-Cy3/Cy5) ligated by sortase; used unlabelled in some experiments) MELRSYQWEVIMPALEGKNIIIWLPTGAGKTRAAAYVAKRHLETVDGAKVVVLVNRVHLVTQHGEEFRRMLDGRWTVTTLSGDMGPRAGFGHLARCHDLLICTAELLQMALTSPEEEEHVELTVFSLIVVDECHHTHKDTVYNVIMSQYLELKLQRAQPLPQVLGLTASPGTGGASKLDGAINHVLQLCANLDTWCIMSPQNCCPQLQEHSQQPCKQYNLCHRRSQDPFGDLLKKLMDQIHDHLEMPELSRKFGTQMYEQQVVKLSEAAALAGLQEQRVYALHLRRYNDALLIHDTVRAVDALAALQDFYHREHVTKTQILCAERRLLALFDDRKNELAHLATHGPENPKLEMLEKILQRQFSSSNSPRGIIFTRTRQSAHSLLLWLQQQQGLQTVDIRAQLLIGAGNSSQSTHMTQRDQQEVIQKFQDGTLNLLVATSVAEEGLDIPHCNVVVRYGLLTNEISMVQARGRARADQSVYAFVATEGSRELKRELINEALETLMEQAVAAVQKMDQAEYQAKIRDLQQAALTKRAAQAAQRENQRQQFPVEHVQLLCINCMVAVGHGSDLRKVEGTHHVNVNPNFSNYYNVSRDPVVINKVFKDWKPGGVISCRNCGEVWGLQMIYKSVKLPVLKVRSMLLETPQGRIQAKKWSRVPFSVPDFDFLQHCAENLSDLSLD | – | – | binds | binds
